For one substance, activity (% pHPRT clones) results are on record in US20030124505.

The target of the data set is RecA recombinase (UniProt P0A7G6). The following applies: second round manual capture from 1:10,000 pHPRT:pUC library; automated 59%; first round 2% and 1.35%.
Sequence of RecA recombinase (P0A7G6 2-353): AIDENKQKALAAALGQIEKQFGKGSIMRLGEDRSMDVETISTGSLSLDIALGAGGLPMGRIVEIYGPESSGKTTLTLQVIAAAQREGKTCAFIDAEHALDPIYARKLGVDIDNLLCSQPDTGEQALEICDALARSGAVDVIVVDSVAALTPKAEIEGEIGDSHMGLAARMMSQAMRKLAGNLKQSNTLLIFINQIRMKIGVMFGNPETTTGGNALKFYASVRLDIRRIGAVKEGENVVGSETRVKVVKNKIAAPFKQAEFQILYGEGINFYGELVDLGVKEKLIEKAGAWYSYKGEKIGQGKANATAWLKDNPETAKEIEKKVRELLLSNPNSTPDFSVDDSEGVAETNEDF

Regarding “318 bp biotinylated HPRT cssDNA probe (primers hExo3-2A and h/m300B)”, the activity (% pHPRT clones) was 76.
